In patent publication US11906524B2, “Urea biosensors and uses thereof” (Duke University, priority 2015, dated 2024):

Assay: Temperature- and urea-dependent fluorescence landscapes of fluorescent conjugates (Roche LightCycler)
Assay type: binding
Design: key: y, yes; n, no
Details: fluorescent response to urea
Description: We constructed 20 single cysteine mutants in csUBP7, exploring 7 endosteric, 12 peristeric, and 1 allosteric position (FIG. 9). At each position we attached the Prodan-derived fluorophores Acrylodan and Badan, which differ by one methylene group in their thiol-reactive linker. The fluorescent responses of these conjugates was determined initially as a function of urea concentration and temperature (FIG. 10). […] The ligand dependence of the emission spectra shapes was determined for these conjugates (Table 8).
Determination of temperature- and ligand-dependent fluorescence landscapes. […] Urea concentrations were varied from 0-4.8 M in 20 mM KCl, 20 mM MOPS (pH 7.4). […] Temperatures were advanced in 1K steps.
Ratiometric analysis of urea binding. […] 2
For a single urea-binding site, the fractional saturation is given by
[formula] where [L] is the ligand (urea) concentration and Kd the dissociation constant, ^trueKd for ytrue.
To obtain the temperature dependence of the binding reaction, the Kd values of all the individually determined isotherms were fit the Gibbs-Hemholtz equation (Layton and Hellinga, 2010, Biochemistry, 49, 10831-41):
[formula] where ΔGb^•(T) is the standard free energy of binding at 1 M ligand at temperature T,
[formula] Δ^refHb^• and Δ^refSb^• the molar enthalpy and entropy of binding, respectively, at the reference temperature, Tref, and ΔCp,b the heat capacity of the binding reaction.

| Molecule | Response (Acrylodan conjugate) | Response (Badan conjugate) |
| --- | --- | --- |
| csUBP7 Q114C: csUBP7 114C cysteine mutant (SEQ ID NO: 34), tested as Acrylodan and Badan conjugates (conjugate, Acrylodan or Badan conjugate; csUBP7_114C (114C substitution mutant with signal peptide replaced with M and a GGSHHHHHH at C-terminus, and also comprising a C89A substitution)) MSSSESEKEKSEETIKVGILHSLSGTMSISEVSLKDAELMAIEEINNNGGVLGKKLEPIVEDGASDWPTFAEKAKKLLQKDKVAVIFGAWTSASRKAVLPVVEENNGLLFYPVCYEGLESSPNIFYMGAAPNQQIVPAVKWLFDNGKKRFYLLGSDYVFPRTANKIIKAYLKYLGGVVVGEEYTPLGHTDYSSVINKIKAAKPDVVFNTLNGDSNVAFFKQLKDAGIDANTLPVMSVSIAEEEIKGIGPEYLKGHLVTWNYFQSVDTPENKEFVEKYKKKYGEDRVTDDPIEAAYIGVYLWAKAVEKAGSTDVDKVREAAKGIEFNAPEGPVKIDGDNQHLYKTVRIGEILENGQIRELWKTNKPVKPDPYLKGYEWAQGLSEQGGSHHHHHH | n | n |
| csUBP7 S238C: csUBP7 238C cysteine mutant (SEQ ID NO: 42), tested as Acrylodan and Badan conjugates (conjugate, Acrylodan or Badan conjugate; csUBP7_238C (238C substitution mutant with signal peptide replaced with M and a GGSHHHHHH at C-terminus, and also comprising a C89A substitution)) MSSSESEKEKSEETIKVGILHSLSGTMSISEVSLKDAELMAIEEINNNGGVLGKKLEPIVEDGASDWPTFAEKAKKLLQKDKVAVIFGAWTSASRKAVLPVVEENNGLLFYPVQYEGLESSPNIFYMGAAPNQQIVPAVKWLFDNGKKRFYLLGSDYVFPRTANKIIKAYLKYLGGVVVGEEYTPLGHTDYSSVINKIKAAKPDVVFNTLNGDSNVAFFKQLKDAGIDANTLPVMSVCIAEEEIKGIGPEYLKGHLVTWNYFQSVDTPENKEFVEKYKKKYGEDRVTDDPIEAAYIGVYLWAKAVEKAGSTDVDKVREAAKGIEFNAPEGPVKIDGDNQHLYKTVRIGEILENGQIRELWKTNKPVKPDPYLKGYEWAQGLSEQGGSHHHHHH | n | n |
| csUBP7 Y115C: csUBP7 115C cysteine mutant (SEQ ID NO: 35), tested as Acrylodan and Badan conjugates (conjugate, Acrylodan or Badan conjugate; csUBP7_115C (115C substitution mutant with signal peptide replaced with M and a GGSHHHHHH at C-terminus, and also comprising a C89A substitution)) MSSSESEKEKSEETIKVGILHSLSGTMSISEVSLKDAELMAIEEINNNGGVLGKKLEPIVEDGASDWPTFAEKAKKLLQKDKVAVIFGAWTSASRKAVLPVVEENNGLLFYPVQCEGLESSPNIFYMGAAPNQQIVPAVKWLFDNGKKRFYLLGSDYVFPRTANKIIKAYLKYLGGVVVGEEYTPLGHTDYSSVINKIKAAKPDVVFNTLNGDSNVAFFKQLKDAGIDANTLPVMSVSIAEEEIKGIGPEYLKGHLVTWNYFQSVDTPENKEFVEKYKKKYGEDRVTDDPIEAAYIGVYLWAKAVEKAGSTDVDKVREAAKGIEFNAPEGPVKIDGDNQHLYKTVRIGEILENGQIRELWKTNKPVKPDPYLKGYEWAQGLSEQGGSHHHHHH | n | n |
| csUBP7 V158C: csUBP7 158C cysteine mutant (SEQ ID NO: 38), tested as Acrylodan and Badan conjugates (conjugate, Acrylodan or Badan conjugate; csUBP7_158C (158C substitution mutant with signal peptide replaced with M and a GGSHHHHHH at C-terminus, and also comprising a C89A substitution)) MSSSESEKEKSEETIKVGILHSLSGTMSISEVSLKDAELMAIEEINNNGGVLGKKLEPIVEDGASDWPTFAEKAKKLLQKDKVAVIFGAWTSASRKAVLPVVEENNGLLFYPVQYEGLESSPNIFYMGAAPNQQIVPAVKWLFDNGKKRFYLLGSDYCFPRTANKIIKAYLKYLGGVVVGEEYTPLGHTDYSSVINKIKAAKPDVVFNTLNGDSNVAFFKQLKDAGIDANTLPVMSVSIAEEEIKGIGPEYLKGHLVTWNYFQSVDTPENKEFVEKYKKKYGEDRVTDDPIEAAYIGVYLWAKAVEKAGSTDVDKVREAAKGIEFNAPEGPVKIDGDNQHLYKTVRIGEILENGQIRELWKTNKPVKPDPYLKGYEWAQGLSEQGGSHHHHHH | n | n |
| csUBP7 F159C: csUBP7 159C cysteine mutant (SEQ ID NO: 39), tested as Acrylodan and Badan conjugates (conjugate, Acrylodan or Badan conjugate; csUBP7_159C (159C substitution mutant with signal peptide replaced with M and a GGSHHHHHH at C-terminus, and also comprising a C89A substitution)) MSSSESEKEKSEETIKVGILHSLSGTMSISEVSLKDAELMAIEEINNNGGVLGKKLEPIVEDGASDWPTFAEKAKKLLQKDKVAVIFGAWTSASRKAVLPVVEENNGLLFYPVQYEGLESSPNIFYMGAAPNQQIVPAVKWLFDNGKKRFYLLGSDYVCPRTANKIIKAYLKYLGGVVVGEEYTPLGHTDYSSVINKIKAAKPDVVFNTLNGDSNVAFFKQLKDAGIDANTLPVMSVSIAEEEIKGIGPEYLKGHLVTWNYFQSVDTPENKEFVEKYKKKYGEDRVTDDPIEAAYIGVYLWAKAVEKAGSTDVDKVREAAKGIEFNAPEGPVKIDGDNQHLYKTVRIGEILENGQIRELWKTNKPVKPDPYLKGYEWAQGLSEQGGSHHHHHH | n | n |
| bsUBP3 T77C: bsUBP3 77C cysteine mutant (SEQ ID NO: 44), tested as Acrylodan conjugate (conjugate, Acrylodan conjugate; bsUBP3_77C (77C substitution mutant with signal peptide replaced with M and a GGSHHHHHH at C-terminus)) MKVGILHSLSGTMAISEVSVHDAELIAIQEINQKGGVLGKKLEPVVEDGASDWPTYAEKMRKLLQQDKVAAVFGGWCSASRKAMLPVVEQNNGLLFYPVQYEGMETSPNIFYTGATTNQQIVPAVDWLLKNKGKKFFLIGSDYVFPRTANKIIKAQVKAGGGEIAGEEYTPLGHTNYSTLVSKIKEKQPDVIFNTLNGDSNVAFFKQLKDAGISADDMPVMSASVAEEEIRGIGPDVLKGHYAVWNYFQTTNTSENQTFVKNYKKMNGDSRVTSDPIEAGYNAVYLWAAAVEKAKSFDVDKVKKAADGISFKAPGGTVKIDGDTQHLYKTVRIGQITGDGQFKEVWNSGEPVKPDPYLKTYDWAKGLSKGGSHHHHHH | y |  |
